Experimental data: patent US20230357354A1, “CD38-BINDING CD31 PEPTIDES AND USES THEREOF” (ENCEFA, priority 2020, published 2023)

What was measured:
[1] = biological target: human CD38 on cells (Daudi cells; CD38^+ Jurkat T cells) (human), P28907; assay: cell-based or functional assay
[2] = biological target: recombinant human CD38 (Acrobio, ref CD8-H5224) (human), P28907; assay: SPR, Biacore 3000, CM5 chip, recombinant human CD38

B1: β-sheet-like folded peptide … (SEQ ID NO: 10), free peptide (peptide)
peptide: CMVKLKREKNPGDQNFVILEFC
modifications: not checked
- EC50, glucose uptake (2-NBDG fluorescence), human Daudi cells [1]: 0.002 nM
- Kd [2]: 8.8 nM
